We go through five molecules from PMC6681466 (Chemsuschem, 2018).

In series [1] the test system is Ls7β-HSDH. The series is described as follows: NADH formation at […] nm, fit with substrate inhibition. In kind it is biochemical, Levilactobacillus spicheri. Conditions: 2.0 mM NAD+, 50 mM KPi pH 8.0, 10% methanol, 25 °C.
For series [2], the target named is T1, Cs7β-HSDH (Clostridium sardiniense, UniProt G9FRD6).
T1 sequence (G9FRD6 1-261): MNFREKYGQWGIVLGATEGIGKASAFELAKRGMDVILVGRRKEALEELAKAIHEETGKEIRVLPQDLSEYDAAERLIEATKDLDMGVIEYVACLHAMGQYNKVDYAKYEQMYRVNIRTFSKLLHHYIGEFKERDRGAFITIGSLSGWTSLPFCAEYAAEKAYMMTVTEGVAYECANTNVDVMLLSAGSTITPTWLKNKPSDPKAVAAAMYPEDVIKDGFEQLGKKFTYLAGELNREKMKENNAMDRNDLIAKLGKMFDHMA
Kind of series: NADPH formation at […] nm, fit with substrate inhibition. Type of series: biochemical. To be noted: 2.0 mM NADP+, 50 mM KPi pH 8.0, 10% methanol, 25 °C.

In series [3] the test system is Ls7β-HSDH. Kind of series: NADH formation at […] nm, fit with substrate inhibition. In kind it is biochemical, Levilactobacillus spicheri. To be noted: read-out: UDCA / K m / [mmol L^-1]; 2.0 mM NAD+, 50 mM KPi pH 8.0, 10% methanol, 25 °C.
Series [4] deals with T1, Cs7β-HSDH. The series is described as follows: NADPH formation at […] nm, fit with substrate inhibition. Type of series: biochemical. To be noted: 1.0 mM UDCA, 50 mM KPi pH 8.0, 10% methanol, 25 °C.
In series [5] the test system is Ls7β-HSDH. Kind of series: NADH consumption at […] nm, Michaelis-Menten. In kind it is biochemical, Levilactobacillus spicheri. Conditions: 0.5 mM NADH, 50 mM KPi pH 8.0, 10% methanol, 25 °C.
Substrate in series [6]: C[C@H](CCC(=O)O)[C@H]1CC[C@H]2[C@@H]3C(=O)C[C@@H]4C[C@H](O)CC[C@]4(C)[C@H]3C[C@H](O)[C@]12C
The series is described as follows: purified protein. To be noted: 0.5 mM NADPH, 50 mM KPi pH 8.0, 10% methanol, 25 °C.

Substrate in series [7]: C[C@H](CCC(=O)O)[C@H]1CC[C@H]2[C@@H]3[C@@H](O)C[C@@H]4C[C@H](O)CC[C@]4(C)[C@H]3CC[C@]12C
The series is described as follows: purified protein. Conditions: 2.0 mM NADP+, 50 mM KPi pH 8.0, 10% methanol, 25 °C.

Substrate in series [8]: [H][C@]12CC(=O)[C@@]3([H])[C@]4([H])CC[C@H]([C@H](C)CCC(=O)O)[C@@]4(C)CC[C@]3([H])[C@@]1(C)CC[C@@H](O)C2
Kind of series: purified protein. Conditions: 0.5 mM NADPH, 50 mM KPi pH 8.0, 10% methanol, 25 °C.

Turning to `C[C@H](CCC(=O)O)[C@H]1CC[C@H]2[C@@H]3[C@@H](O)C[C@@H]4C[C@H](O)CC[C@]4(C)[C@H]3CC[C@]12C` [UDCA], the results for the “UDCA / K i /” value in the series on Ls7β-HSDH [1] and on Cs7β-HSDH [2] were 800 ± 300 µM and 1400 ± 300 µM, respectively. Moreover, in the series on Ls7β-HSDH [3], the Km came to 156 ± 51 µM.

Consider `NC(=O)c1ccc[n+]([C@@H]2O[C@H](COP(=O)(O)OP(=O)(O)OC[C@H]3O[C@@H](n4cnc5c(N)ncnc54)[C@H](OP(=O)(O)O)[C@@H]3O)[C@@H](O)[C@H]2O)c1` [NADP^+], for which the “NADP^+ / K i /” value on Cs7β-HSDH [4] turned out to be 10000 ± 3000 µM.

On to `C[C@H](CCC(=O)O)[C@H]1CC[C@H]2[C@@H]3C(=O)C[C@@H]4C[C@H](O)CC[C@]4(C)[C@H]3C[C@H](O)[C@]12C` [7-oxo-DCA], for which the Km in the series on Ls7β-HSDH [5] (read-out: 7-oxo-DCA / K m / [mmol L^-1]) was found to be 131 ± 28 µM.

Consider `C[C@H](CCC(=O)O)[C@H]1CC[C@H]2[C@@H]3C(=O)C[C@@H]4C[C@H](O)CC[C@]4(C)[C@H]3CC[C@]12C` [7-oxo-LCA], for which the Km in the series with Ls7β-HSDH [5] (read-out: 7-oxo-LCA / K m / [mmol L^-1]) was 38 ± 14 µM.

B1: Cs7β-HSDH (Clostridium sardiniense) (protein)
chain: T1 sequence (G9FRD6 1-261)
Regarding B1, in “purified protein [6]”, the Km amounted to 106 ± 5 µM, the catalytic constant (kcat) (usually the maximal rate divided by the concentration of active sites) came out at 2.27 ± 0.03 s⁻¹ and the kcat/Km (commonly the turnover number divided by the Michaelis constant) came to 21300 M⁻¹ s⁻¹. For the same molecule, in “purified protein [7]”, the Km came to 160 ± 30 µM, the kcat came to 3.61 ± 0.34 s⁻¹ and the kcat/Km was found to be 22600 M⁻¹ s⁻¹. Also, in the series “purified protein [8]”, the Km stood at 128 ± 27 µM, the kcat came to 1.37 s⁻¹ and the kcat/Km came out at 10700 M⁻¹ s⁻¹.
